According to publication PMC4633989:

Target: Nrx-1 C-term peptide (last 10 C-terminal residues of Drosophila Nrx-1) (Drosophila) (UniProt Q3KN41)
Assay: ITC; Nrx-1 C-term peptide with the PDZ domains of Spn or Syd-1; details in the Supplementary Methods

Sequence of UniProt Q3KN41 (Q3KN41 whole entry, looked up, the tested form may be a part): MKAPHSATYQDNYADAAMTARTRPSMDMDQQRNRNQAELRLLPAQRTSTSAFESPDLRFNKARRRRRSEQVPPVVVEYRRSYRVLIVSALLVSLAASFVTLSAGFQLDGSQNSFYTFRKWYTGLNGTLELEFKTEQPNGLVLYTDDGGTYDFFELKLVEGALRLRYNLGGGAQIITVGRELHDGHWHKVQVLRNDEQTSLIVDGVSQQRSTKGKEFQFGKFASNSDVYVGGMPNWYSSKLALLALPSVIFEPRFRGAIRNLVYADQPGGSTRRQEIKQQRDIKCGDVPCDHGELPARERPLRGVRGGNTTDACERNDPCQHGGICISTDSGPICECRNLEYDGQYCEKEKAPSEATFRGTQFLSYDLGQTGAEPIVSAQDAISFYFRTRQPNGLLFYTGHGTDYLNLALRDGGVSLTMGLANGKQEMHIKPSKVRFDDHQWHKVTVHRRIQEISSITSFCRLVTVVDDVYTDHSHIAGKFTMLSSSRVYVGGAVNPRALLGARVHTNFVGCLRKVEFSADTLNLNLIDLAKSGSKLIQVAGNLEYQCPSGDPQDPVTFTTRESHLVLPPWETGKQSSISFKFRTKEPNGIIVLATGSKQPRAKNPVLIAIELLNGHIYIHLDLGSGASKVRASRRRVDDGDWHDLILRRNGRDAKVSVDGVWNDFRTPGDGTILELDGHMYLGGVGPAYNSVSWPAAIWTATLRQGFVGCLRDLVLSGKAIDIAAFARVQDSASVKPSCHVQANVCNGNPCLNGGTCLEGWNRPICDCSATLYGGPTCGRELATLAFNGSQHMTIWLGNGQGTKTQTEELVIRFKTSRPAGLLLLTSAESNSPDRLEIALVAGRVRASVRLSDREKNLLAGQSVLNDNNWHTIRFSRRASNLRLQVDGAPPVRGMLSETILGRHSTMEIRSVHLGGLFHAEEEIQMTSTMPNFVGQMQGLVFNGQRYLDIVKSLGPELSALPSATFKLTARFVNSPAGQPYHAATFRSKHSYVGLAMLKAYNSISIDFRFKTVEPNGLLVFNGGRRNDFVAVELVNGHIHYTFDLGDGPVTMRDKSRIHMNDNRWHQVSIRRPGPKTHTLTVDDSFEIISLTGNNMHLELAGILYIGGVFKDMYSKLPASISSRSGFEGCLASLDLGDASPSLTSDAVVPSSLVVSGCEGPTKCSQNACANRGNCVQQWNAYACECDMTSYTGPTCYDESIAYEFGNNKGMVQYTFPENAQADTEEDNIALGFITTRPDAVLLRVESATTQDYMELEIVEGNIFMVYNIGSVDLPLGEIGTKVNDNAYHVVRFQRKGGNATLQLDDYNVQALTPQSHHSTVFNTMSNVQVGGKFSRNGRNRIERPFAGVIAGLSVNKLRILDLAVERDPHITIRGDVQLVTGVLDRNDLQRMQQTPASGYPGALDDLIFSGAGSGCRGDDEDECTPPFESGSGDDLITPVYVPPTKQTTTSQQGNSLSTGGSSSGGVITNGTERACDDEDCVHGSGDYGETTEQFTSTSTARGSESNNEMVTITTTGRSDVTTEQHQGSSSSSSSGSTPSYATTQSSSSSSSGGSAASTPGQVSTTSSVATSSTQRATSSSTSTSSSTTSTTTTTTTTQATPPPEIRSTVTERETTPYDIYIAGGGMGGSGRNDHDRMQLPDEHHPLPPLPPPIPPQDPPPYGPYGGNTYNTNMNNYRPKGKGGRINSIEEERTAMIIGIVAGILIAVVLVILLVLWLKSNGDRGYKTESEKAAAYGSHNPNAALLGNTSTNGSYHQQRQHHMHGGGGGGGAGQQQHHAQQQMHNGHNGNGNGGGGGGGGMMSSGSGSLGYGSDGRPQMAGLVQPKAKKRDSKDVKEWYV

| Substance | Kd [µM] |
| --- | --- |
| Drosophila Spn-PDZ domain (dmSpn residues 1,258-1,347) (domain or fragment) | 50 |
| Drosophila Syd-1-PDZ domain (dmSyd-1 residues 155-242) (domain or fragment) | 5 |
